Measured values reported in patent US20240085404A1.

Biological target: human FcRn (FCGRT heavy chain and B2M light chain) expressed on MDCK-hFcRn cells (human) (UniProt P55899)
Test: cell-based or functional assay

recycling output [ng/mL]	Substance
0.6	anti-gD HAHQ (antibody)
1.9	anti-gD YTE (antibody)
